Experimental findings from patent US11312773B2, “Anti-PD-L1 antibody” (Fuso Pharmaceutical Industries, Ltd., priority 2016, dated 2022) are described below.

Experiment [1] has as its system canine PD-L1. The experiment in a line: Flow cytometry cross-reactivity with canine PD-L1 expressing cells. The format is binding. How it is done:
COS-7 cells were subcultured at a density of 5×10^4 cells/cm^2 in 6-well plates, and then cultured overnight in RPMI 1640 medium containing 10% inactivated fetal bovine serum and 0.01% L-glutamine at 37° C. in the presence of 5% CO2. The pEGFP-N2-cPD-1, pEGFP-N2-cPD-L1 or pEGFP-N2 (negative control) was introduced into COS-7 cells at 0.4 μg/cm^2 using Lipofectamine 2000 (Invitrogen). The cells were cultured for 48 hours (cPD-1-EGFP expressing cell and cPD-L1-EGFP expressing cell). In order to confirm the expression of canine PD-1 and PD-L1 in the thus prepared expressing cells, intracellular localization of enhanced green fluorescent protein (EGFP) was visualized with an inverted confocal laser microscope LSM700 (ZEISS) (Maekawa N, Konnai S, Ikebuchi R. Okagawa T, Adachi M, Takagi S, Kagawa Y. Nakajima C, Suzuki Y, Murata S, Ohashi K. PLoS One. 2014 Jun. 10; 9(6):e98415).
In order to identify rat anti-bovine PD-L1 monoclonal antibody showing cross-reactivity with canine PD-L1, flow cytometry was performed using the anti-bovine PD-L1 antibody prepared in 2.1 above. The anti-bovine PD-L1 antibody (10 μg/ml) was reacted with 2×10^5-1×10^6 cells at room temperature for 30 min. After washing, the anti-bovine PD-L1 antibody was detected with allophycocyanine-labeled anti-rat Ig goat antibody (Beckman Coulter). FACS Verse (Becton, Dickinson and Company) was used for analysis. […]

The test system of experiment [2] is ovine PD-1/PD-L1 binding. As to the kind of experiment: Ovine PD-1/PD-L1 binding inhibition test (PD-1-EGFP COS-7 cells and PD-L1-Ig). The settings on record: antibody 0-50 μg/ml, ovine PD-L1-Ig 1 μg/ml. The method, then: Using ovine PD-1-EGFP expressing COS-7 cells and ovine PD-L1-Ig recombinant protein, or porcine PD-1-EGFP expressing COS-7 cells and porcine PD-L1-Ig recombinant protein, inhibition of ovine or porcine PD-1/PD-L1 binding by rat anti-bovine PD-L1 antibody […] was tested. […] Subsequently, the antibody 4G12 was reacted with 2×10^5 ovine PD-1-EGFP expressing COS-7 cells or porcine PD-1-EGFP expressing COS-7 cells at 37° C. for 30 min. After washing, ovine PD-L1-Ig or porcine PD-L1-Ig bound to cell surfaces was detected with Alexa Fluor 647-labeled anti-rabbit IgG (H+L) goat F(ab′)2 (Life Technologies). For analysis, FACS Verse (BD Biosciences) was used. As a negative control antibody, rat IgG2a (κ) isotype control (BD Biosciences) was used. Taking the proportion of PD-L1-Ig bound cells without antibody addition as 100%, the proportion of PD-L1-Ig bound cells at each antibody concentration was shown as relative value.

For experiment [3], the system named is PBMCs of BLV-infected cattle. As to the kind of experiment: Biological activity test: IFN-γ production of PBMCs of BLV-infected cattle to BLV antigen. The following applies: 10 μg/ml antibody, 2% FLK-BLV supernatant, 6 days, n=10.

B1: 4G12: rat anti-bovine PD-L1 monoclonal antibody; VL SEQ ID NO: 1, VH SEQ ID NO: 2 (antibody, listed as Rattus norvegicus, V domains shown)
VH: MGWSQIILFLVAAATCVHSQVQLQQSGAELVKPGSSVKISCKASGYTFTSNFMHWVKQQPGNGLEWIGWIYPEYGNTKYNQKFDGKATLTADKSSSTAYMQLSSLTSEDSAVYFCASEEAVISLVYWGQGTLVTVSS
VL: MESQTHVLISLLLSVSGTYGDIAITQSPSSVAVSVGETVTLSCKSSQSLLYSENQKDYLGWYQQKPGQTPKPLIYWATNRHTGVPDRFTGSGSGTDFTLIISSVQAEDLADYYCGQYLVYPFTFGPGTKLELK
With B1, the “Cross-reactivity with / binding to canine PD-L1” value in experiment [1] is given as “showed cross-reaction with canine PD-L1”. Moreover, the “Inhibition of ovine PD-1/PD-L1 binding” value in experiment [2] was “capable of inhibiting”. In addition, the “IFN-γ response of bovine PBMCs to BLV antigen” value in experiment [3] is “increases”.
